In test [1] the target is T1, hVEGF-A Y21A (human, UniProt P15692-4 34-135, Y21A).
T1 construct: position probably counted on the mature protein
T1 sequence (looked up): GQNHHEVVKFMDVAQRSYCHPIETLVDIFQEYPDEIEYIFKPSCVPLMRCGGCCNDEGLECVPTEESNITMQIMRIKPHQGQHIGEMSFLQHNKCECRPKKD
Kind of test: SPR. The procedure:
(§1) Depending on the format of the assay either a streptavidin sensor (SA) or a dextran-coated (CM5) sensor was utilized as described below.
(§2) Reaction was then quenched by addition of 10 molar excess of Glycine pH 8.0 and the sample was buffer exchanged into PBS using an Amicon 0.5 mL 3000 MWCO ultra-centrifugal filters (EMD Millipore). The biotinylation state of the protein was verified by LC-MS analysis. Biotinylated VEGF-A was then captured on the surface until a resonance unit (RU) signal of about ˜400. For immobilization of VEGF-A on CM5 sensor, the surface was first activated with a mixture of N-ethyl-N′-(3-dimethylaminopropyl)carbodiimide hydrochloride and N-hydroxysuccinimide (EDC/NHS) according to the supplier instructions. VEGF-A was then diluted into coupling buffer (0.1 M Acetate Buffer, pH 5.0) and injected until the signal reached about ˜400 RU followed by a wash with 1 M ethanolamine pH 8.0 to quench remaining activated sites.

The target in test [2] is T2, human VEGF-A 165 (human, UniProt P15692-4 27-191). Kind of test: competition ELISA: VEGF-A 165 coated, constant KDR receptor, peptide titrated; blocked ligand: KDR. The procedure: (§3) Binding specificity of each peptide was established by competition ELISA. […] After blocking with block buffer (PBS with 0.5% BSA and 0.05% TWEEN®20) for 2 hours at room temperature, the receptor-Fc fusions or biotinylated receptors were serially diluted using assay buffer (PBS with 0.5% BSA and 0.05% TWEEN®20) and incubated for 1 hour at room temperature. […] Competition ELISA was conducted in an identical fashion as described above except after blocking, a mixture of serially diluted peptide containing a constant concentration of receptor-Fc fusion or biotinylated receptor (concentration of receptor was set to EC₆₀) was added and incubated for 1 hour. All recombinant human proteins and antibodies were purchased from R &D Systems (Minneapolis, Minn.).

Test [3] deals with IGF-1 (human, UniProt P05019 49-118). Kind of test: competition ELISA: IGF coated, constant IGFR receptor, peptide titrated.
The target in test [4] is T3, hVEGF-A (human, UniProt P15692-4 27-191, limits assumed).
T3 construct: also called human VEGF-A; WT
Kind of test: KDR-VEGF competition ELISA.

For test [5], the target named is T3, hVEGF-A. Kind of test: cell-based or functional assay.
In test [6] the target is T3, hVEGF-A. Kind of test: cell-based or functional assay. The source holds these as a separate data set.
The target in test [7] is T4, VEGF-B (human, UniProt P49765-2 22-188, limits assumed).
T4 sequence (looked up): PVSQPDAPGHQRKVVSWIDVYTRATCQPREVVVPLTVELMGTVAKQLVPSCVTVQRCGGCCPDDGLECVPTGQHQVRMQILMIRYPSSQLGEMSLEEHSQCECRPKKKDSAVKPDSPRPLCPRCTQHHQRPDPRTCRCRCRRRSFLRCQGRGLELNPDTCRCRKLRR
Kind of test: competition ELISA: VEGF-B coated, constant Flt-1 receptor, peptide titrated.

In test [8] the target is T5, rabbit VEGF-A (rabbit, UniProt G1T1L9 1-398).
T5 sequence: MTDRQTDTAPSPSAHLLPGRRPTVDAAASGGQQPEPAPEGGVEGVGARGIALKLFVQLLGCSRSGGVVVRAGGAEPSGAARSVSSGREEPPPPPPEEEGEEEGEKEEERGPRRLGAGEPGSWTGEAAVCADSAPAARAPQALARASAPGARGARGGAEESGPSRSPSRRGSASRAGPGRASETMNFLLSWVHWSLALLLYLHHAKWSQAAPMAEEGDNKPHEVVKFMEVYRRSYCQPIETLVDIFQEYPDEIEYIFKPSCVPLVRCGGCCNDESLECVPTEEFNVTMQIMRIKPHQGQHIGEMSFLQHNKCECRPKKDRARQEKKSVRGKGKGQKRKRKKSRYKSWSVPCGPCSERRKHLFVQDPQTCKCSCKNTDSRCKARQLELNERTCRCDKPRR
Kind of test: SPR. How it is done: as §1, §2

The target in test [9] is T6, hVEGF-A (8-109) (human, UniProt P15692 214-315).
T6 sequence (looked up): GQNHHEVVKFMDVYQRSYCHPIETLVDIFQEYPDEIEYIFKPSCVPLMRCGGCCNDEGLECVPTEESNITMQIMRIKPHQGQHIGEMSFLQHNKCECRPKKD
Kind of test: SPR. How it is done:
as §1, §2

For test [10], the target named is T2, human VEGF-A 165. Kind of test: SPR. The procedure:
as §1, §2
Target sequence in this assay (P15692 other isoform, or with tags, fused parts or gaps limits assumed): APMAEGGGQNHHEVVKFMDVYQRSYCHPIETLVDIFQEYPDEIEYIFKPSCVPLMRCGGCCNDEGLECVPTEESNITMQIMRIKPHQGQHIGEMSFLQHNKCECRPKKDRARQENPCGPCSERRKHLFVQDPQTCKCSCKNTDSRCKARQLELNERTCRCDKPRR

In test [11] the target is T7, rat VEGF-A (rat, UniProt P16612-2 27-190, limits assumed).
T7 construct: also called rVEGF
T7 sequence (looked up): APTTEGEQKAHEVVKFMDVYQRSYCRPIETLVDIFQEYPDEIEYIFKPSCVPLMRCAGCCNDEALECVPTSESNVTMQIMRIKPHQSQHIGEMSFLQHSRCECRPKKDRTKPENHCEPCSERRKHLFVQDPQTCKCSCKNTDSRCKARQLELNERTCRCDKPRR
Kind of test: SPR. How it is done:
as §1, §2

The target of test [12] is T8, mouse VEGF-A 164 (mouse, UniProt Q00731-2 27-190).
T8 construct: also called mouse 164
T8 sequence (looked up): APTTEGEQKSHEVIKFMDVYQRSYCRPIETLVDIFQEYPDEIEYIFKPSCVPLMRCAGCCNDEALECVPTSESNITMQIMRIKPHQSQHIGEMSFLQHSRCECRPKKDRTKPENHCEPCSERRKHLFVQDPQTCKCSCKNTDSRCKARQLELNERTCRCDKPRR
Kind of test: SPR. How it is done:
as §1, §2

For test [13], the target named is T3, hVEGF-A. Kind of test: cell-based or functional assay. The source holds these as a separate data set.
Test [14] addresses T6, hVEGF-A (8-109). Kind of test: competition ELISA: VEGF-A (8-109) coated, constant Flt-1 receptor, peptide titrated; blocked ligand: Flt-1. How it is done:
as §3

In test [15] the target is T3, hVEGF-A. Kind of test: cell-based or functional assay. The source holds these as a separate data set.

Like-named read-outs stand apart in the source and are kept apart here.

As to GCNIMLPFWGCGRDFECLAGCVCQYYQSCG (designed binder) [VEGF_CKP9.54.90], the equilibrium dissociation constant (Kd) came to 3.5 nM in [1]; 1.14 nM in test [8]; 0.87 nM in test [9]; 0.89 nM in [10]; 0.9 nM in [11]; 1.31 nM in test [12]. The “IC50 (read off the curve)” value in [2] is approximately 30 nM; in [14], approximately 70 nM; in [15], approximately 60 nM. The binding result in test [3] and in test [7] was “no binding (tested: 5 µM)” throughout. The same molecule returned an IC50 in [4] of 0.2 nM. Also, the “Cellular IC50” value in test [5], in test [6] and in test [13] was 1.35 nM each time. For the same molecule, the “FOLD [..] [..] TO VARIANT 9.54.90” value in test [5] and in [6] was 1 fold in each case.

Source of the values: patent US20200325187A1 (Genentech, published 2020).
